Assay results reported in patent publication US20090137002A1 (published 2009).

T1: myc-tagged human EphB4 on transfected CHO cells (human, UniProt P54760 16-987)
T1 construct: whole, on cells; also called CHO-EphB4; CHO-hEphB4; not shown: myc tag
T1 sequence (looked up): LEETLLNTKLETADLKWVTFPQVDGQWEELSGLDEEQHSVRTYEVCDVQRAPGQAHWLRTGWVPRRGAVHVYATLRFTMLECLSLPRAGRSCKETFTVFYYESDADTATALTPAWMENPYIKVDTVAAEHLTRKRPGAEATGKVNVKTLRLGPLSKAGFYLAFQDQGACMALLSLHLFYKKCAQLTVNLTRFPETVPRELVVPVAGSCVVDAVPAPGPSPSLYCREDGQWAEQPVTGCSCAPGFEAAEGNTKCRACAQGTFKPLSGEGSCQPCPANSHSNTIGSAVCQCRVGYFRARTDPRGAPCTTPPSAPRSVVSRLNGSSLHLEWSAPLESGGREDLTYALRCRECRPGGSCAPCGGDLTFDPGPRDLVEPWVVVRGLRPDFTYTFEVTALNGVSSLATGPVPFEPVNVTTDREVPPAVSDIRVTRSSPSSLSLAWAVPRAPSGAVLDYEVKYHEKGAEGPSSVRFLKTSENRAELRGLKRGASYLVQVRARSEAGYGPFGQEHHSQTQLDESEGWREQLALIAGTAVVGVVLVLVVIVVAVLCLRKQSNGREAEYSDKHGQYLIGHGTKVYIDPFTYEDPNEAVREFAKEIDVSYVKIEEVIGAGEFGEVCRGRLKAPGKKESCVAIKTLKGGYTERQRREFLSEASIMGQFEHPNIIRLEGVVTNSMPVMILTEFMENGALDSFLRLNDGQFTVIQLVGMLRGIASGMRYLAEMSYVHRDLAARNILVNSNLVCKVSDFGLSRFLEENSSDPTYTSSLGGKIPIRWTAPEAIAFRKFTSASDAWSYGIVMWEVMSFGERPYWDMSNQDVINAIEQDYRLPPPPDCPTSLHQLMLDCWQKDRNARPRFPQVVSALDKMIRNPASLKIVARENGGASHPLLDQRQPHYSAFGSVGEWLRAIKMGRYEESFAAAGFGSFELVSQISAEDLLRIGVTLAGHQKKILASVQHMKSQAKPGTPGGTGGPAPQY


Key:
[1] = biological target: T1, myc-tagged human EphB4 on transfected …; assay: FACS competition on CHO-EphB4 cells, competitor murine ephrin-B2
Procedure: (§1) C50 values (i.e. IgG4-Pro inhibition of ligand binding) were determined in FACS. […] Receptor-bound ephrin-B2 was detected via biotinylated anti-mouse ephrin-B2 antibody (R&D Systems) and streptavidin-PE. The IC50 values of the IgGs, determined in two independent experiments, are given in Table 11 and are compared to the IC50 values of the corresponding Fab. […] Again, as already seen for the Fab, the IC50 values of the MOR07310 pool were slightly better than those of the MOR03641 pool.

[2] = biological target: T1, myc-tagged human EphB4 on transfected …; assay: FACS titration of IgG4-Pro on CHO-EphB4 cells
Procedure: For the determination of EC50 values, the 12 final IgGs were analyzed on CHO-EphB4 cells in FACS. The EC50 values of the IgGs, determined in two independent experiments, are given in Table 11 and are compared to the EC50 values of the corresponding Fab. […] Again, as already seen for the Fab, the EC50 values of the MOR07310 pool were slightly better than those of the MOR03641 pool.

[3] = biological target: T1, myc-tagged human EphB4 on transfected …; assay: FACS, IgG4-Pro inhibition of murine ephrin-B2 binding to CHO-EphB4 cells
Procedure: as §1

[4] = biological target: T1, myc-tagged human EphB4 on transfected …; assay: FACS, IgG4-Pro inhibition of murine ephrin-B2 binding to CHO-EphB4 cells; n = 1
Procedure: as §1

Binder	IC50 (read off the curve) [1]	EC50 [2]	EC50 (read off the curve) [2]	IC50 [3]	fold improvement of IC50 compared to the corresponding Fab [3]	IC50 [4]
MOR07953 IgG4-Pro (antibody, V domains shown, Fab MOR07953 converted into human IgG4-Pro format) VH: QVELVESGGGLVQPGGSLRLSCAASGFTFNNAWMSWVRQAPGKGLEWVSAINAKGQFTSYADSVKGRFTISRDNSKNTLYLQMNSLRAEDTAVYYCARKGMSFYNNKYAKSMFDLWGQGTLVTVSS VL: DIELTQPPSVSVAPGQTARISCSGDNLGKKYVHWYQQKPGQAPVLVIYYDSKRPSGIPERFSGSNSGNTATLTISGTQAEDEADYYCQTWTLSHMGNVFGGGTKLTVLG	~0.3 nM	0.17 nM	~0.1 nM	0.23 nM	–	–
MOR07724 IgG4-Pro (antibody, V domains shown, Fab MOR07724 converted into human IgG4-Pro format) VH: QVQLVESGGGLVQPGGSLRLSCAASGFTFNNAWMSWVRQAPGKGLEWVSGISADGVHKFYADSVKGRFTISRDNSKNTLYLQMNSLRAEDTAVYYCARKGMSFYNNKYAKSMFDLWGQGTLVTVSS VL: DIELTQPPSVSVAPGQTARISCSGDNLGKKYVHWYQQKPGQAPVLVIYYDSKRPSGIPERFSGSNSGNTATLTISGTQAEDEADYYCSAWTTTMMHIVFGGGTKLTVLG	~0.1 nM	0.18 nM	–	0.1 nM	–	–
MOR07721 IgG4-Pro (antibody, V domains shown, Fab MOR07721 converted into human IgG4-Pro format) VH: QVQLVESGGGLVQPGGSLRLSCAASGFTFNNAWMSWVRQAPGKGLEWVSTIEAKMPNGATFYAAPVKGRFTISRDNSKNTLYLQMNSLRAEDTAVYYCARKGMSFYNNKYAKSMFDLWGQGTLVTVSS VL: DIELTQPPSVSVAPGQTARISCSGDNLGKKYVHWYQQKPGQAPVLVIYYDSKRPSGIPERFSGSNSGNTATLTISGTQAEDEADYYCSAWTTTMMHIVFGGGTKLTVLG	~0.1 nM	0.12 nM	–	0.16 nM	6 fold	–
MOR07728 IgG4-Pro (antibody, V domains shown, Fab MOR07728 converted into human IgG4-Pro format) VH: QVELVQSGAEVKKPGSSVKVSCKASGGTFSTYAISWVRQAPGQGLEWMGRIIPIFGTANYAQKFQGRVTITADESTSTAYMELSSLRSEDTAVYYCARSSYTILTTYYNYNAMDNWGQGTLVTVSS VL: DIQMTQSPSSLSASVGDRVTITCRASQNINNFLNWYQQKPGKAPKLLIYGSSILQSGVPSRFSGSGSGTDFTLTISSLQPEDFATYYCQQNDFYSPSTFGQGTKVEIKR	~3 nM	1.58 nM	~2 nM	–	–	3.26 nM
MOR07955 IgG4-Pro (antibody, V domains shown, Fab MOR07955 converted into human IgG4-Pro format) VH: QVELVQSGAEVKKPGSSVKVSCKASGGTFSTYAISWVRQAPGQGLEWMGKIIPIFGDADYAQKFQGRVTITADESTSTAYMELSSLRSEDTAVYYCARSSYTILTTYYNYNAMDNWGQGTLVTVSS VL: DIQMTQSPSSLSASVGDRVTITCRASQNINNFLNWYQQKPGKAPKLLIYGSSILQSGVPSRFSGSGSGTDFTLTISSLQPEDFATYYCSQDHFYPPSGTFGQGTKVEIKR	–	0.51 nM	–	0.31 nM	–	–
MOR07956 IgG4-Pro (antibody, V domains shown, Fab MOR07956 converted into human IgG4-Pro format) VH: QVELVQSGAEVKKPGSSVKVSCKASGGTFSTYAISWVRQAPGQGLEWMGKIIPIFGDADYAQKFQGRVTITADESTSTAYMELSSLRSEDTAVYYCARSSYTILTTYYNYNAMDNWGQGTLVTVSS VL: DIQMTQSPSSLSASVGDRVTITCRASQNINNFLNWYQQKPGKAPKLLIYGSSILQSGVPSRFSGSGSGTDFTLTISSLQPEDFATYYCQQYDFYLSGTFGQGTKVEIKR	–	0.34 nM	–	–	–	0.43 nM
MOR07957 IgG4-Pro (antibody, V domains shown, Fab MOR07957 converted into human IgG4-Pro format) VH: QVELVQSGAEVKKPGSSVKVSCKASGGTFSTYAISWVRQAPGQGLEWMGQIIPIFGDADYAQKFQGRVTITADESTSTAYMELSSLRSEDTAVYYCARSSYTILTTYYNYNAMDNWGQGTLVTVSS VL: DIQMTQSPSSLSASVGDRVTITCRASQNINNFLNWYQQKPGKAPKLLIYGSSILQSGVPSRFSGSGSGTDFTLTISSLQPEDFATYYCQQNDFYSPSTFGQGTKVEIKR	–	0.36 nM	–	0.79 nM	–	–
